{
  "source": "patent US20050181450A1",
  "about": "“Novel inositol 1,4,5-trisphosphate (IP3) receptor-binding protein and an IP3 indicator” (priority 2002, published 2005)",
  "molecules": {"B1": {"name": "His-IRBIT: purified His-tagged IRBIT expressed in Sf9 cells (protein)", "chain": "MSMPDAMPLPGVGEELKQAKEIEDAEKYSFMATVTKAPKKQIQFADDMQEFTKFPTKTGRRSLSRSISQSSTDSYSSAASYTDSSDDEVSPREKQQTNSKGSSNFCVKNIKQAEFGRREIEIAEQDMSALISLRKRAQGEKPLAGAKIVGCTHITAQTAVLIETLCALGAQCRWSACNIYSTQNEVAAALAEAGVAVFAWKGESEDDFWWCIDRCVNMDGWQANMILDDGGDLTHWVYKKYPNVFKKIRGIVEESVTGVHRLYQLSKAGKLCVPAMNVNDSVTKQKFDNLYCCRESILDGLKRTTDVMFGGKQVVVCGYGEVGKGCCAALKALGAIVYITEIDPICALQACMDGFRVVKLNEVIRQVDVVITCTGNKNVVTREHLDRMKNSCIVCNMGHSNTEIDVTSLRTPELTWERVRSQVDHVIWPDGKRVVLLAEGRLLNLSCSTVPTFVLSITATTQALALIELYNAPEGRYKQDVYLLPKKMDEYVASLHLPSFDAHLTELTDDQAKYLGLNKNGPFKPNYYRY", "modifications": "left off: small tags and cut ends", "notes": "purified His-tagged IRBIT expressed in Sf9 cells"}, "B2": {"name": "IRBIT-His: C-terminally His-tagged full-length IRBIT expressed in Escherichia coli (protein, UniProt O43865 1-530, looked up)", "chain": "B1 chain", "modifications": "full-length C-terminal His tag", "notes": "C-terminally His-tagged full-length IRBIT expressed in Escherichia coli"}, "B3": {"name": "GST-IRBIT: N-terminally GST-tagged full-length IRBIT expressed in Escherichia coli (protein, UniProt O43865 1-530, looked up)", "chain": "B1 chain", "modifications": "full-length N-terminal GST tag", "notes": "N-terminally GST-tagged full-length IRBIT expressed in Escherichia coli"}},
  "key": {"GST-EL (IP3R)": {"molecular_target": "T1, GST-EL (IP3R) (Mus musculus, UniProt P11881, N1264K)", "T1 construct": "construct a GST-IP3R1 (1-2217) vector (termed GST-EL); made in house; host or cells: GST-EL: Sf9 cells; His-IRBIT: Sf9 cells or E. coli", "T1 sequence (P11881 1-2217 N1264K)": "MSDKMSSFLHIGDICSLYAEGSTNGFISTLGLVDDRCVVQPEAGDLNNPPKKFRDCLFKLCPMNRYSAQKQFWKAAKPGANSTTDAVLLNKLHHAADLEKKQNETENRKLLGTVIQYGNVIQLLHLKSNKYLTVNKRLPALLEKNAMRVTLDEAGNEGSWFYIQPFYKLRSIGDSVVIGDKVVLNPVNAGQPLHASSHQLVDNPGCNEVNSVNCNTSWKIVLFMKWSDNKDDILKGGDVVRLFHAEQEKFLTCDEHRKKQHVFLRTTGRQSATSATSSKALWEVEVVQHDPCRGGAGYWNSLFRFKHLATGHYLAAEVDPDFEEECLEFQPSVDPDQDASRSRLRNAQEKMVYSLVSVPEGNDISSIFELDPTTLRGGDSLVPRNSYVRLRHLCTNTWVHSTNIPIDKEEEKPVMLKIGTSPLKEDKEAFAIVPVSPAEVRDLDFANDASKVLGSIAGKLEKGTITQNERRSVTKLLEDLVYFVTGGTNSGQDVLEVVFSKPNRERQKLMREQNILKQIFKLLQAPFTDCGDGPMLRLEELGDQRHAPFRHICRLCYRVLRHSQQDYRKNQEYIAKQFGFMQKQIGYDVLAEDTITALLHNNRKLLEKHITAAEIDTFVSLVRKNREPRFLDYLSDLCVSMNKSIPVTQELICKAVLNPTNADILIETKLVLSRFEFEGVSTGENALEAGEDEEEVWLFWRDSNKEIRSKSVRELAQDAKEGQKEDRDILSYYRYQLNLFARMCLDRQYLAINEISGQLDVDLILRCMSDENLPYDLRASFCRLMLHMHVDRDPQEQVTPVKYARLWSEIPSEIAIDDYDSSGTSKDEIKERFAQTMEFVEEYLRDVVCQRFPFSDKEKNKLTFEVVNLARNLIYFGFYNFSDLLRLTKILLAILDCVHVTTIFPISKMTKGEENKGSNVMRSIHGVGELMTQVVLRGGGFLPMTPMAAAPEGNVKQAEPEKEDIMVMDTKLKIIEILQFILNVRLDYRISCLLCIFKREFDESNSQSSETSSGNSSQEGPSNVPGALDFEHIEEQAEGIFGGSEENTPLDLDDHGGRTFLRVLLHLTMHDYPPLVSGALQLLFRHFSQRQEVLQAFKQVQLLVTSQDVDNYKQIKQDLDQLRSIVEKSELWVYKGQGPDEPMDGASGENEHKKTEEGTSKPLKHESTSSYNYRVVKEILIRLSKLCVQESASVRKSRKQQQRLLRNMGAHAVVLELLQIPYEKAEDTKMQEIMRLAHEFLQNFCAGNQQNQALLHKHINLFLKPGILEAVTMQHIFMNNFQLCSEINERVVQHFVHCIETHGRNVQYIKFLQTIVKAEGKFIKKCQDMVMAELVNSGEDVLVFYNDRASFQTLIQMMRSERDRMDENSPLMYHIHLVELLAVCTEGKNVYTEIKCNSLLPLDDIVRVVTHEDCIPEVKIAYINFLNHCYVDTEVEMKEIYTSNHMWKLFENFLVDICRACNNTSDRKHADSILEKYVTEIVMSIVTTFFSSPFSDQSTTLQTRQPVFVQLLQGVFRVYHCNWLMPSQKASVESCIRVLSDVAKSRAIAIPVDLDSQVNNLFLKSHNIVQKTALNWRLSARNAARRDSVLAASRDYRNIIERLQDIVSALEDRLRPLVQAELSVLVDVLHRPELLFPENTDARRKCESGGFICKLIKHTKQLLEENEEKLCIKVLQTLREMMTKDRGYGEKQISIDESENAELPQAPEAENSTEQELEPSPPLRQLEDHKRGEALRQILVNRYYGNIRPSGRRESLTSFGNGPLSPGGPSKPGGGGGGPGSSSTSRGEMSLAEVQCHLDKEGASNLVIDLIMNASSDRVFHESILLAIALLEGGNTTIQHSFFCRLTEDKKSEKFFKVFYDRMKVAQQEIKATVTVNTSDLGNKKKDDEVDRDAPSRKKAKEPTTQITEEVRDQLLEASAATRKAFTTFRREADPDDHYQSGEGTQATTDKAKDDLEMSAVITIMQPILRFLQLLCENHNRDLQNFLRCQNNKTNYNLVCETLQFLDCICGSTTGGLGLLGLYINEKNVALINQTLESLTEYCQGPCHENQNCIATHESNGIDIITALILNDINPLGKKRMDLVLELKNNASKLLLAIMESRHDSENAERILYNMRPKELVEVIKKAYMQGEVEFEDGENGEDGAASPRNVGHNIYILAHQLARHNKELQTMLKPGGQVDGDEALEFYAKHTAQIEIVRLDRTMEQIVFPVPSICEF", "assay": "[3H]IP3 binding to GST-EL", "procedure": "(A) 0.2 μg of GST-EL was incubated with 0.1, 1, or 10 μg of purified His-tagged IRBIT expressed in Sf9 cells or E. coli in a solution containing 50 mM Tris-HCl (pH 8.0), 1 mM EDTA, and 1 mM 2-mercaptoethanol, for 30 min on ice. Then 8.7 nM [^3H]IP3 (PerkinElmer Life Sciences) was added to the samples and incubated for 10 min on ice (total volume was 50 μl). The samples were mixed with 2 μl of 50 mg/ml γ-globulin and 50 μl of 30% PEG6000, 50 mM Tris-HCl (pH 8.0), and incubated for 5 min on ice. Non-specific binding was measured in the presence of 10 μM cold IP3. After centrifugation at 20,000×g for 5 min, the precipitate was dissolved in SOLVABLE™ (Packard) and the radioactivity was measured with a liquid scintillation counter (Beckman Coulter). Results are shown as the mean±S.D. from three independent experiments. (B) Purified His-IRBIT expressed in Sf9 cells was incubated with alkaline phosphatase for 30 min at 37° C. prior to the IP3 binding assay described as in (A). (C and D) Scatchard analysis. 0.1 μg of GST-EL was incubated with or without 1 μg of purified His-tagged IRBIT expressed in Sf9 cells as described in (A). Then 2.17 nM [^3H]IP3 and 2-500 nM cold IP3 were added to the samples and incubated for 10 min on ice (total volume was 100 μl). Non-specific binding was measured in the presence of 10 μM cold IP3. [^3H]IP3 binding to GST-EL was measured as described in (A).\nThe effect of IRBIT on binding of IP3 to IP3R was examined. GST-EL (0.2 μg) was incubated with 0.1, 1, or 10 μg of purified His-tagged IRBIT expressed in Sf9 cells or E. coli in a solution containing 50 mM Tris-HCl (pH 8.0), 1 mM EDTA, and 1 mM 2-mercaptoethanol, for 30 min on ice. Then 8.7 nM [^3H]IP3 (PerkinElmer Life Sciences) was added to the samples and incubated for 10 min on ice (total volume was 50 μl). The samples were mixed with 2 μl of 50 mg/ml γ-globulin and 50 μl of 30% PEG6000, 50 mM Tris-HCl (pH 8.0), and incubated for 5 min on ice. Non-specific binding was measured in the presence of 10 μM cold IP3. After centrifugation at 20,000×g for 5 min, the precipitate was dissolved in SOLVABLE™ (Packard) and the radioactivity was measured with a liquid scintillation counter (Beckman Coulter). […] 0.1 μg of GST-EL was incubated with or without 1 μg of purified His-tagged IRBIT expressed in Sf9 cells as described in (A). Then 2.17 nM [^3H]IP3 and 2-500 nM cold IP3 were added to the samples and incubated for 10 min on ice (total volume was 100 μl). Non-specific binding was measured in the presence of 10 μM cold IP3. [^3H]IP3 binding to GST-EL was measured as described in (A). […] Bmax was not changed."}, "[1]": {"assay": "S-adenosylhomocysteine hydrolase activity in the hydrolytic direction", "assay_type": "biochemical", "conditions": "recombinant protein expressed in Escherichia coli; hydrolysis direction", "procedure": "The S-adenosylhomocysteine hydrolase activity in the hydrolytic direction of recombinant IRBIT-His (open circle), GST-IRBIT (triangle), GST (square), and S-adenosylhomocysteine hydrolase (closed circle) were measured according to the known method (43). Results are shown as the mean±standard deviation from three independent experimental results.\nTo assay S-adenosylhomocysteine hydrolase activity in the hydrolytic direction, the color developed by the reaction between the product (Homocysteine) and 5,5′-dithiobis (2-nitrobenzoic acid) (Sigma) was measured spectroscopically using the purified IRBIT-His (3.0 μg), GST-IRBIT (4.3 μg), GST (1.3 μg) and rabbit S-adenosylhomocysteine hydrolase (Sigma) (2.4 μg), according to the known method (43). Absorbance at 412 nm was measured 0, 5, 20 and 60 minutes later using a DU 640 spectrophotometer (Beckman). Results are shown as the mean±standard deviation from three independent experiments (FIG. 2)."}, "[2]": {"conditions": "1 μg His-tagged IRBIT (Sf9), 0.1 μg GST-EL"}},
  "data": [
    {"molecule": "B1", "values": [
      {"measurement": "Bmax (Scatchard analysis)", "setting": "GST-EL (IP3R); [2]", "value": "not changed"},
      {"measurement": "affinity of GST-EL to IP3 (Scatchard analysis)", "setting": "GST-EL (IP3R); [2]", "value": "decreased the affinity"},
      {"measurement": "effect on IP3 binding of GST-EL", "setting": "GST-EL (IP3R); 0.1, 1 or 10 μg His-tagged IRBIT expressed in Sf9, 8.7 nM [3H]IP3", "value": "dose-dependently suppressed"}
    ]},
    {"molecule": "B2", "values": [
      {"measurement": "S-adenosylhomocysteine hydrolase activity", "setting": "[1]", "value": "neither of the recombinant IRBITs had enzyme activity"}
    ]},
    {"molecule": "B3", "values": [
      {"measurement": "S-adenosylhomocysteine hydrolase activity", "setting": "[1]", "value": "neither of the recombinant IRBITs had enzyme activity"}
    ]}
  ]
}
